These results are taken from paper PMC8552062, “Contributions of UDP-Glucuronosyltransferases to Human Hepatic and Intestinal Metabolism of Ticagrelor and Inhibition of UGTs and Cytochrome P450 Enzymes by Ticagrelor and its Glucuronidated Metabolite” (Frontiers in Pharmacology, 2021).

Common to all, as to format: in vitro ADME
Substrate in series [1]: CCCSc1nc(N[C@@H]2C[C@H]2c2ccc(F)c(F)c2)c2nnn([C@@H]3C[C@H](OCCO)[C@@H](O)[C@H]3O)c2n1
Description: Ticagrelor glucuronidation by recombinant human UGT1A3. The following applies: other: recombinant UGT1A3, Michaelis-Menten kinetics; pH 7.4; 37.0 °C. How it is done: (§1) Ticagrelor glucuronidation was investigated in an in vitro incubation system by using HLM, HIM, and recombinant human UGTs. The incubation system consisted of enzyme sources (HLM, HIM, or human recombinant UGTs), various concentrations of ticagrelor (dissolved in 50% methanol, 1% v/v, 1, 2, 5, 10, 20, 50, 100, 200, 500 μM of final concentration), alamethicin (50 μg/mg protein), 5 mM MgCl2, 100 mM tris-HCL buffer (pH 7.4), and 5 mM UDPGA in a total volume of 100 μl. Alamethicin is a pore-forming polypeptide used to activate UGTs in HLM and HIM ([Fisher et al., 2000]). Preliminary studies were conducted to determine the optimal protein concentrations and incubation times. Linear conditions of ticagrelor-O-Glu formation from ticagrelor, i.e., HLM, 0.2 mg of protein/ml and 60 min, HIM, 0.2 mg of protein/ml and 60 min, and recombinant human UGTs, 0.2 mg of protein/ml and 60 min were selected. The incubation mixture without UDPGA was placed on ice for 15 min to activate UGT by alamethicin. After pre-incubation for 5 min at 37°C, the reactions were started by the addition of UDPGA. After another 60 min of incubation at 37°C, the reaction was terminated by adding 100 μl of acetonitrile containing internal standard (diazepam). The mixture vortexed for 2 min and then centrifuged at 14,000 rpm for 10 min at 4°C. The resulting supernatant was injected into a liquid chromatography tandem mass spectrometry (LC-MS/MS, Applied Biosystems/MDS Sciex, Foster City, CA) system for the detection of ticagrelor-O-Glu.
(§2) Kinetic analyses were performed using the mean values of triplicate determinations with either pooled HLM, HIM, or recombinant human UGTs. All data were analyzed by nonlinear regression analysis using the GraphPad Prism 6 (GraphPad Software Inc., CA, United States). Michaelis-Menten kinetics (Eq. 1) or substrate inhibition kinetics (Eq. 2) ([Houston and Kenworthy, 2000]) were tested to determine the optimal model for describing the data. […] Intrinsic clearance (CLint) was calculated by dividing Vmax by Km.

Substrate in series [2]: CCCSc1nc(N[C@@H]2C[C@H]2c2ccc(F)c(F)c2)c2nnn([C@@H]3C[C@H](OCCO)[C@@H](O)[C@H]3O)c2n1
Nature of the series: Ticagrelor glucuronidation by recombinant human UGT1A8. The following applies: other: recombinant UGT1A8, Michaelis-Menten kinetics; pH 7.4; 37.0 °C. How it is done: as §1, §2

Substrate in series [3]: CCCSc1nc(N[C@@H]2C[C@H]2c2ccc(F)c(F)c2)c2nnn([C@@H]3C[C@H](OCCO)[C@@H](O)[C@H]3O)c2n1
Description: Ticagrelor glucuronidation by recombinant human UGT1A7. The following applies: other: recombinant UGT1A7, Michaelis-Menten kinetics; pH 7.4; 37.0 °C. How it is done: as §1, §2

Substrate in series [4]: CCCSc1nc(N[C@@H]2C[C@H]2c2ccc(F)c(F)c2)c2nnn([C@@H]3C[C@H](OCCO)[C@@H](O)[C@H]3O)c2n1
Description: Ticagrelor glucuronidation by recombinant human UGT1A4. The following applies: other: recombinant UGT1A4, Michaelis-Menten kinetics; pH 7.4; 37.0 °C. How it is done:
as §1, §2

Substrate in series [5]: CCCSc1nc(N[C@@H]2C[C@H]2c2ccc(F)c(F)c2)c2nnn([C@@H]3C[C@H](OCCO)[C@@H](O)[C@H]3O)c2n1
Description: Ticagrelor glucuronidation by recombinant human UGT1A9. The following applies: other: recombinant UGT1A9, Michaelis-Menten kinetics; pH 7.4; 37.0 °C. How it is done:
as §1, §2

B1: recombinant human UGT1A3 (Homo sapiens) (protein)
chain: GKVLVVPIDGSHWLSMREVLRELHARGHQAVVLTPEVNMHIKEENFFTLTTYAISWTQDEFDRHVLGHTQLYFETEHFLKKFFRSMAMLNNMSLVYHRSCVELLHNEALIRHLNATSFDVVLTDPVNLCAAVLAKYLSIPTVFFLRNIPCDLDFKGTQCPNPSSYIPRLLTTNSDHMTFMQRVKNMLYPLALSYICHAFSAPYASLASELFQREVSVVDILSHASVWLFRGDFVMDYPRPIMPNMVFIGGINCANRKPLSQEFEAYINASGEHGIVVFSLGSMVSEIPEKKAMAIADALGKIPQTVLWRYTGTRPSNLANNTILVKWLPQNDLLGHPMTRAFITHAGSHGVYESICNGVPMVMMPLFGDQMDNAKRMETKGAGVTLNVLEMTSEDLENALKAVINDKSYKENIMRLSSLHKDRPVEPLDLAVFWVEFVMRHKGAPHLRPAAHDLTWYQYHSLDVIGFLLAVVLTVAFITFKCCAYGYRKCLGKKGRVKKAHKSKTH
notes: purchased BD Gentest; host or cells: baculovirus-infected insect cells
For the protein B1, in series [1], the Michaelis-Menten constant (Km) was 19.19 µM, the Vmax came to 7.8e-07 µmol/min/mg and the Vmax/Km was 0.04 µL/min/mg.

B2: recombinant human UGT1A8 (Homo sapiens) (protein)
chain: GKLLVVPMDGSHWFTMQSVVEKLILRGHEVVVVMPEVSWQLGKSLNCTVKTYSTSYTLEDLDREFMDFADAQWKAQVRSLFSLFLSSSNGFFNLFFSHCRSLFNDRKLVEYLKESSFDAVFLDPFDACGLIVAKYFSLPSVVFARGIACHYLEEGAQCPAPLSYVPRILLGFSDAMTFKERVRNHIMHLEEHLFCQYFSKNALEIASEILQTPVTAYDLYSHTSIWLLRTDFVLDYPKPVMPNMIFIGGINCHQGKPLPMEFEAYINASGEHGIVVFSLGSMVSEIPEKKAMAIADALGKIPQTVLWRYTGTRPSNLANNTILVKWLPQNDLLGHPMTRAFITHAGSHGVYESICNGVPMVMMPLFGDQMDNAKRMETKGAGVTLNVLEMTSEDLENALKAVINDKSYKENIMRLSSLHKDRPVEPLDLAVFWVEFVMRHKGAPHLRPAAHDLTWYQYHSLDVIGFLLAVVLTVAFITFKCCAYGYRKCLGKKGRVKKAHKSKTH
notes: as for B1
For the protein B2, in series [2], the Km was 6.63 µM, the Vmax came to 9e-08 µmol/min/mg and the Vmax/Km was 0.01 µL/min/mg.

B3: recombinant human UGT1A7 (Homo sapiens) (protein)
chain: GKLLVVPMDGSHWFTMQSVVEKLILRGHEVVVVMPEVSWQLGRSLNCTVKTYSTSYTLEDQDREFMVFADARWTAPLRSAFSLLTSSSNGIFDLFFSNCRSLFNDRKLVEYLKESCFDAVFLDPFDACGLIVAKYFSLPSVVFARGIFCHYLEEGAQCPAPLSYVPRLLLGFSDAMTFKERVWNHIMHLEEHLFCPYFFKNVLEIASEILQTPVTAYDLYSHTSIWLLRTDFVLEYPKPVMPNMIFIGGINCHQGKPVPMEFEAYINASGEHGIVVFSLGSMVSEIPEKKAMAIADALGKIPQTVLWRYTGTRPSNLANNTILVKWLPQNDLLGHPMTRAFITHAGSHGVYESICNGVPMVMMPLFGDQMDNAKRMETKGAGVTLNVLEMTSEDLENALKAVINDKSYKENIMRLSSLHKDRPVEPLDLAVFWVEFVMRHKGAPHLRPAAHDLTWYQYHSLDVIGFLLAVVLTVAFITFKCCAYGYRKCLGKKGRVKKAHKSKTH
notes: as for B1
For B3, in series [3], the Km turned out to be 1.68 µM, the Vmax was determined as 1.2e-07 µmol/min/mg and the Vmax/Km was 0.07 µL/min/mg.

B4: recombinant human UGT1A4 (Homo sapiens) (protein)
chain: GKVLVVPTDGSPWLSMREALRELHARGHQAVVLTPEVNMHIKEEKFFTLTAYAVPWTQKEFDRVTLGYTQGFFETEHLLKRYSRSMAIMNNVSLALHRCCVELLHNEALIRHLNATSFDVVLTDPVNLCGAVLAKYLSIPAVFFWRYIPCDLDFKGTQCPNPSSYIPKLLTTNSDHMTFLQRVKNMLYPLALSYICHTFSAPYASLASELFQREVSVVDLVSYASVWLFRGDFVMDYPRPIMPNMVFIGGINCANGKPLSQEFEAYINASGEHGIVVFSLGSMVSEIPEKKAMAIADALGKIPQTVLWRYTGTRPSNLANNTILVKWLPQNDLLGHPMTRAFITHAGSHGVYESICNGVPMVMMPLFGDQMDNAKRMETKGAGVTLNVLEMTSEDLENALKAVINDKSYKENIMRLSSLHKDRPVEPLDLAVFWVEFVMRHKGAPHLRPAAHDLTWYQYHSLDVIGFLLAVVLTVAFITFKCCAYGYRKCLGKKGRVKKAHKSKTH
notes: as for B1
For the protein B4, in series [4], the Michaelis-Menten constant (Km) is 10.28 µM, the maximal velocity (Vmax) is 3.6e-07 µmol/min/mg and the Vmax/Km amounted to 0.04 µL/min/mg.

B5: recombinant human UGT1A9 (Homo sapiens) (protein)
chain: GKLLVVPMDGSHWFTMRSVVEKLILRGHEVVVVMPEVSWQLGRSLNCTVKTYSTSYTLEDLDREFKAFAHAQWKAQVRSIYSLLMGSYNDIFDLFFSNCRSLFKDKKLVEYLKESSFDAVFLDPFDNCGLIVAKYFSLPSVVFARGILCHYLEEGAQCPAPLSYVPRILLGFSDAMTFKERVRNHIMHLEEHLLCHRFFKNALEIASEILQTPVTEYDLYSHTSIWLLRTDFVLDYPKPVMPNMIFIGGINCHQGKPLPMEFEAYINASGEHGIVVFSLGSMVSEIPEKKAMAIADALGKIPQTVLWRYTGTRPSNLANNTILVKWLPQNDLLGHPMTRAFITHAGSHGVYESICNGVPMVMMPLFGDQMDNAKRMETKGAGVTLNVLEMTSEDLENALKAVINDKSYKENIMRLSSLHKDRPVEPLDLAVFWVEFVMRHKGAPHLRPAAHDLTWYQYHSLDVIGFLLAVVLTVAFITFKCCAYGYRKCLGKKGRVKKAHKSKTH
notes: as for B1
For B5, in series [5], the Michaelis-Menten constant (Km) is 1.60 µM, the maximum rate (Vmax) came to 9e-07 µmol/min/mg and the Vmax/Km came out at 0.56 µL/min/mg.

The term Km denotes the concentration of substrate that gives half-maximal velocity. The Vmax is the rate approached at saturating substrate.
